Reference: publication PMC8752827 (Nature Communications, 2022)
Where no end group is shown, it is not given here.

B1: anti-IL-6 scFv (scFv, V domains shown)
VH: QVQLVESGGGLVQPGGSLRLSCAASGFNFNDYFMNWVRQAPGKGLEWVAQMRNKNYQYGTYYAESLEGRFTISRDDSKNSLYLQMNSLKTEDTAVYYCARESYYGFTSYWGQGTLVTVSG
VL: GIQMTQSPSSLSASVGDRVTITCQASQDIGISLSWYQQKPGKAPKLLIYNANNLADGVPSRFSGSGSGTDFTLTISSLQPEDFATYYCLQHNSAPYTFGQGTKLETG
B2: anti-IL-6 Fab (Fab, V domains shown)
VH: EVQLQESGPGLVKPSQTLSLTCTVSGGSITTRYYAWSWIRQPPGKGLEWMGVIDYDGDTYYSPSLKSRTSISWDTSKNQFSLQLSSVTPEDTAVYYCARDPDVVTGFHYDYWGQGTQVTVSS
VL: QAVLTQPPLVSGTPGQTVTISCAGANNDIGTYAYVSWYQQLPGTAPKLLIYKVTTRASGIPSRFSGSKSGNTASLTISGLQSEDEADYYCASYRNFNNAVFGRGTHLTVL
B3: anti-HSA scFv (scFv, V domains shown)
VH: EVQLLESGGGLVQPGGSLRLSCAVSGIDLSNYAINWVRQAPGKGLEWIGIIWASGTTFYATWAKGRFTISRDNSKNTVYLQMNSLRAEDTAVYYCARTVPGYSTAPYFDLWGQGTLVTVSS
VL: DIQMTQSPSSVSASVGDRVTITCQSSPSVWSNFLSWYQQKPGKAPKLLIYEASKLTSGVPSRFSGSGSGTDFTLTISSLQPEDFATYYCGGGYSSISDTTFGGGTKVEIK
B4: anti-HSA Fab (Fab, V domains shown)
VH: B3 VH
VL: B3 VL
B5: wild-type MCoTI-II fused to RGS (peptide)
peptide: SGSDGGVCPKILKKCRRDSDCPGACICRGNGYCGGAG
modifications: disulfide (positions not given here); also: three disulfides, pairing not given here, fused to RGS
notes: also called wtMCoTI-RGS; wtMCoTI

Legend:
Details in all cases: both partners purified
[1] = target: human IL-6 (Homo sapiens, UniProt P05231); test: pull-down; antibody fragment captured by RGS-tag on AC-resin co- or post-translationally, washed, treated with neutral buffer or 2 M GdnHCl/100 mM DTT then 1 M GdnHCl/10 mM GSH (or fully refolded from 6 M GdnHCl); incubated with 50 uL of 10 uM antigen for 3 h at RT; washed; eluted by boiling or by PreScission cleavage; SDS-PAGE
[2] = target: T1, Human serum albumin (Homo sapiens, UniProt P02768); test: as above
T1 construct: also called HSA

[3] = target: Trypsin (UniProt P00760 18-246); test: enzyme inhibition assay (trypsin-inhibitory assay); 100 pM trypsin pre-incubated with peptide (twofold dilution series from 4 nM to 3.9 pM) for 3 h at room temperature in 0.1 M NaCl, 10 mM CaCl2, 0.005% Triton X-100, 0.1 M Tris-HCl pH 8.0; residual activity on Boc-Q-A-R-AMC (10 uM); Ki from IC50 by a tight-binding equation, Km 12 uM
Sequence of Trypsin (P00760 24-246): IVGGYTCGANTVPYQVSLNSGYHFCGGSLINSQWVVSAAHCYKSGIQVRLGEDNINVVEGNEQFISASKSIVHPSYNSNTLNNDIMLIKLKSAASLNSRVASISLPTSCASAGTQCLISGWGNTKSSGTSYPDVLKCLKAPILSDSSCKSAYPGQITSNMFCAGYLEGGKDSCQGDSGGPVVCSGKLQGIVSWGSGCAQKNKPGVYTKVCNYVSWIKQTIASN

Sequence of human IL-6 (P05231 30-212): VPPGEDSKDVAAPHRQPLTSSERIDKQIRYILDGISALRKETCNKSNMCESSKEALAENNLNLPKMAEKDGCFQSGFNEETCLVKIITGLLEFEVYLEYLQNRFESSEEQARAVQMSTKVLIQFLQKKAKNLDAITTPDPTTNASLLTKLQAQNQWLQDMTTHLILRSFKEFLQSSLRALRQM

binding result [1]	binding result [2]	also measured	Binder
binds	–	–	B1
binds	–	–	B2
–	binds	–	B3
–	binds	–	B4
–	–	fold Ki against prmMCoTI [3]: ~4 fold	B5
